From US20240117030A1 (Pfizer, published 2024)

Experiments:
[1] = target: T1, human TSLP (long form) (human, UniProt Q969D9 29-159, Biotinylated on the Avi tag in some assays; glycosylated (Expi293F expression)); assay: bridging sandwich ELISA: human TSLP coated, Tri-Fab-Fc titrated, IL-13-FLAG added, detected with HRP anti-FLAG (OD450nm)
T1 construct: biotinylated in some assays; also called lfhTSLP; hTSLP

[2] = target: T2, human IL-13 (human, UniProt P35225 35-146); assay: SPR 37°C, antibody captured by anti-human IgG, human IL-13 1.56-50 nM
T2 construct: mature; The Pfizer protein carries an N-terminal FLAG tag; bioassays used R&D Systems IL-13; also called hu IL-13; rHu IL-13

[3] = target: T2, human IL-13; assay: cell-based or functional assay
[4] = target: T3, recombinant human IL-33 (R&D Systems 3625-IL), reduced with DTT (human, UniProt O95760 112-270, limits assumed); assay: cell-based or functional assay
T3 sequence (looked up): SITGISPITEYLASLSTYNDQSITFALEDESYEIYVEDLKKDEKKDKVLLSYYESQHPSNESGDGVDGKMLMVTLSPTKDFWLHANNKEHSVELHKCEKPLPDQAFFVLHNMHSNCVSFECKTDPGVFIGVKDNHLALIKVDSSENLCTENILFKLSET

T2 sequence (P35225 35-146 limits assumed, form in doubt): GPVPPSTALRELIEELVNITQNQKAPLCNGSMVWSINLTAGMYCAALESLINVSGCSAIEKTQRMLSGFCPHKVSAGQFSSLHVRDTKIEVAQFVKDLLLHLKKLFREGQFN

B1: IL413TSLP-0002 (trispecific antibody, human IgG1, kappa, lambda)
heavy: EVQLVESGGGLVQPGGSLRLSCAASGFTFSSYAMSWVRQAPGKGLEWVASISSGDTTYYPDSVKGRFTISRDNAKNSLYLQMNSLRAEDTAVYYCARNEGYYFGLTLWGQGTLVTVSSASTKGPSVFPKAPSSKSTSGGTAALGCLVKDYFPEPVTVSWNSGALTSGVHTFPAVLQSSGLYSLSSSVTVPSSSLGTQTYICNVNHKPSNTKVDKKVEPKSCDKTHTCPPCPAPEAAGAPSVFLFPPKPKDTLMISRTPEVTCVVVDVSHEDPEVKFNWYVDGVEVHNAKTKPREEQYNSTYRVVSVLTVLHQDWLNGKEYKCKVSNKALPAPIEKTISKAKGQPREPQVCTLPPSREEMTKNQVSLWCLVKGFYPSDIAVEWESNGQPENNYKTTPPVLDSDGSFFLYSKLTVDKSRWQQGNVFSCSVMHEALHNHYTQKSLSLSPGK
chain 1: QMQLVESGGGVVQPGRSLRLSCAASGFTFRTYGMHWVRQAPGKGLEWVAVIWYDGSNKHYADSVKGRFTITRDNSKNTLNLQMNSLRAEDTAVYYCARAPQWELVHEAFDIWGQGTMVTVSSGQPKAAPSVTLFPPSSEELQANKATLVCLISDFYPGAVTVAWKADSSPVKAGVETTTPSKQSNNKYAASSYLSLTPEQWKSHRSYSCQVTHEGSTVEKTVAPTECSGGGGSEVTLRESGPALVKPTQTLTLTCTFSGFSLSNFGEGLSWIRQPPGKGLEWLAHIYWDDDKRYNPSLKSRLTISKDTSRNQVVLTMTNMDPVDTATYYCARRETVFYWYFDVWGQGTTVTVSSASTKGPSVFPEAPSSKSTSGGTAALGCLVKDYFPEPVTVSWNSGALTSGVHTFPAVLQSSGLYSLGSVVTVPSSSLGTQTYICNVNHKPSNTKVDKKVEPKSCDKTHTCPPCPAPEAAGAPSVFLFPPKPKDTLMISRTPEVTCVVVDVSHEDPEVKFNWYVDGVEVHNAKTKPREEQYNSTYRVVSVLTVLHQDWLNGKEYKCKVSNKALPAPIEKTISKAKGQPREPQVYTLPPCREEMTKNQVSLSCAVKGFYPSDIAVEWESNGQPENNYKTTPPVLDSDGSFFLVSKLTVDKSRWQQGNVFSCSVMHEALHNHYTQKSLSLSPGK
light 1: DIQMTQSPSSLSASVGDRVTITCKASESVDHFGWSLVHWYQQKPGKAPKLLIYRASNLESGVPSRFSGSGSGTDFTLTISSLQPEDFATYYCQQSNEDPWTFGGGTKVEIKRTVAAPSVFIFPPSDEQLKSGTASVSCLLNNFYPREAKVQWKVDNALQSGNSQESVTEQDSKDSTYSLDSTLTLSKADYEKHKVYACEVTHQGLSSPVTKSFNRGEC
light 2: DIQMTQSPSSLSASVGDRVTITCKASQSVDEDGDSYMNWYQQKPGKAPKLLIYAASNLESGVPSRFSGSGSGTDFTLTISSLQPEDFATYYCQQSNEDPPTFGGGTKVEIKRTVAAPSVFIFPPSDEQLKSGTASVSCLLNNFYPREAKVQWKVDNALQSGNSQESVTEQDSKDSTYSLKSTLTLSKADYEKHKVYACEVTHQGLSSPVTKSFNRGEC
chain 2: SYVLTQPPSVSVAPGQTARITCGGNNLGSKSVHWYQQKPGQAPVLVVYDDSDRPSWIPERFSGSNSGNTATLTISRGEAGDEADYYCQVWDSSSDHVVFGGGTKLTVLASTKGPSVFPLAPSSKSTSGGTAALGCLVKDYFPEPVTVSWNSGALTSGVHTFPAVLQSSGLYSLSSVVTVPSSSLGTQTYICNVNHKPSNTKVDKKVEPKSC
[1]
  EC50 (read off the curve): ~0.5 nM

B2: IL413TSLP-0007 (trispecific antibody, human IgG1, kappa, lambda)
heavy: EVTLRESGPALVKPTQTLTLTCTFSGFSLSNFGEGLSWIRQPPGKGLEWLAHIYWDDDKRYNPSLKSRLTISKDTSRNQVVLTMTNMDPVDTATYYCARRETVFYWYFDVWGQGTTVTVSSASTKGPSVFPEAPSSKSTSGGTAALGCLVKDYFPEPVTVSWNSGALTSGVHTFPAVLQSSGLYSLGSVVTVPSSSLGTQTYICNVNHKPSNTKVDKKVEPKSCDKTHTCPPCPAPEAAGAPSVFLFPPKPKDTLMISRTPEVTCVVVDVSHEDPEVKFNWYVDGVEVHNAKTKPREEQYNSTYRVVSVLTVLHQDWLNGKEYKCKVSNKALPAPIEKTISKAKGQPREPQVYTLPPCREEMTKNQVSLSCAVKGFYPSDIAVEWESNGQPENNYKTTPPVLDSDGSFFLVSKLTVDKSRWQQGNVFSCSVMHEALHNHYTQKSLSLSPGK
chain 1: SYVLTQPPSVSVAPGQTARITCGGNNLGSKSVHWYQQKPGQAPVLVVYDDSDRPSWIPERFSGSNSGNTATLTISRGEAGDEADYYCQVWDSSSDHVVFGGGTKLTVLASTKGPSVFPLAPSSKSTSGGTAALGCLVKDYFPEPVTVSWNSGALTSGVHTFPAVLQSSGLYSLSSVVTVPSSSLGTQTYICNVNHKPSNTKVDKKVEPKSCGGGGSEVQLVESGGGLVQPGGSLRLSCAASGFTFSSYAMSWVRQAPGKGLEWVASISSGDTTYYPDSVKGRFTISRDNAKNSLYLQMNSLRAEDTAVYYCARNEGYYFGLTLWGQGTLVTVSSASTKGPSVFPKAPSSKSTSGGTAALGCLVKDYFPEPVTVSWNSGALTSGVHTFPAVLQSSGLYSLSSSVTVPSSSLGTQTYICNVNHKPSNTKVDKKVEPKSCDKTHTCPPCPAPEAAGAPSVFLFPPKPKDTLMISRTPEVTCVVVDVSHEDPEVKFNWYVDGVEVHNAKTKPREEQYNSTYRVVSVLTVLHQDWLNGKEYKCKVSNKALPAPIEKTISKAKGQPREPQVCTLPPSREEMTKNQVSLWCLVKGFYPSDIAVEWESNGQPENNYKTTPPVLDSDGSFFLYSKLTVDKSRWQQGNVFSCSVMHEALHNHYTQKSLSLSPGK
light 1: DIQMTQSPSSLSASVGDRVTITCKASQSVDEDGDSYMNWYQQKPGKAPKLLIYAASNLESGVPSRFSGSGSGTDFTLTISSLQPEDFATYYCQQSNEDPPTFGGGTKVEIKRTVAAPSVFIFPPSDEQLKSGTASVSCLLNNFYPREAKVQWKVDNALQSGNSQESVTEQDSKDSTYSLKSTLTLSKADYEKHKVYACEVTHQGLSSPVTKSFNRGEC
light 2: DIQMTQSPSSLSASVGDRVTITCKASESVDHFGWSLVHWYQQKPGKAPKLLIYRASNLESGVPSRFSGSGSGTDFTLTISSLQPEDFATYYCQQSNEDPWTFGGGTKVEIKRTVAAPSVFIFPPSDEQLKSGTASVSCLLNNFYPREAKVQWKVDNALQSGNSQESVTEQDSKDSTYSLDSTLTLSKADYEKHKVYACEVTHQGLSSPVTKSFNRGEC
chain 2: QMQLVESGGGVVQPGRSLRLSCAASGFTFRTYGMHWVRQAPGKGLEWVAVIWYDGSNKHYADSVKGRFTITRDNSKNTLNLQMNSLRAEDTAVYYCARAPQWELVHEAFDIWGQGTMVTVSSGQPKAAPSVTLFPPSSEELQANKATLVCLISDFYPGAVTVAWKADSSPVKAGVETTTPSKQSNNKYAASSYLSLTPEQWKSHRSYSCQVTHEGSTVEKTVAPTECS
[1]
  EC50 (read off the curve): ~0.6 nM

B3: IL13-0259 (antibody, IgG1, V domains shown)
VH: EVQLVESGGGLVQPGGSLRLSCAASGFTFSSYAMSWVRQAPGKGLEWVASISTGDTTYYPDSVKGRFTISRDNAKNSLYLQMNSLRAEDTAVYYCARNEGYYFGLTQWGRGTLVTVSS
VL: DIQMTQSPSSLSASVGDRVTITCRASQSVDHFGWSLVHWYQQKPGKAPKLLIYRASNLESGVPSRFSGSGSGTDFTLTISSLQPEDFATYYCQQSNEDPWTFGGGTKVEIK
notes: IgG1 effector-null/kappa IgG
[2]
  Kd: 0.0717 nM
[3]
  CD23: Fold versus IL13-0001: 0.81 fold
  CD23 IC50 [pM] Ave. n = 2: 7.4 pM

B4: IL13-0271 (antibody, IgG1, V domains shown)
VH: EVQLVESGGGLVQPGGSLRLSCAASGFTFSSYAMSWVRQAPGKGLEWVASISTGDTTYYPDSVKGRFTISRDNAKNSLYLQMNSLRAEDTAVYYCARNEGYYFGLTQWGRGTLVTVSS
VL: DIQMTQSPSSLSASVGDRVTITCRASESVDHFGWSLVHWYQQKPGKAPKLLIYRADSLETGVPSRFSGSGSGTDFTLTISSLQPEDFATYYCQQSNEDPWTFGGGTKVEIK
notes: IgG1 effector-null/kappa IgG; also called IL13433-0271
[2]
  Kd: 0.0736 nM
[3]
  CD23: Fold versus IL13-0001: 1.01 fold
  CD23 IC50 [pM] Ave. n = 2: 5.9 pM

B5: IL13-0270 (antibody, V domains shown)
VH: EVQLVESGGGLVQPGGSLRLSCAASGFTFSSYAMSWVRQAPGKGLEWVASISTGDTTYYPDSVKGRFTISRDNAKNSLYLQMNSLRAEDTAVYYCARNEGYYFGLTLWGQGTLVTVSS
VL: DIQMTQSPSSLSASVGDRVTITCRASESVDHFGWSLVHWYQQKPGKAPKLLIYRADSLETGVPSRFSGSGSGTDFTLTISSLQPEDFATYYCQQSNEDPWTFGGGTKVEIK
notes: IgG1 effector-null/kappa IgG; also called IL13433-0270
[2]
  Kd: 0.0932 nM
[3]
  CD23: Fold versus IL13-0001: 0.67 fold
  CD23 IC50 [pM] Ave. n = 2: 9 pM

B6: IL33-0721 (antibody, IgG1, V domains shown)
VH: EVQLVESGGGLVQPGGSLRLSCAASGFEFSHYWMYWVRQAPGKGLEWVAAITPNAGEDYYPESVKGRFTISRDNAKNSLYLQMNSLRAEDTAVYYCARGYYRYTKYSLGYWGQGTLVTVSS
VL: DIQMTQSPSSLSASVGDRVTITCRASQPIHQFLDWYQQKPGKAPKLLIYFGHILQEGVPSRFSGSGSGTDFTLTISSLQPEDFATYYCFQYKQGWSFGGGTKVEIK
[4]
  IC50 [nM] versus reduced human IL-33 (R&D), IC50 (AVE): 0.026 nM
